Experimental findings from patent US20090068110A1, “ANTIBODIES TO INSULIN-LIKE GROWTH FACTOR RECEPTOR” (Genentech, Inc., priority 2006, published 2009) are described below.

Residue numbers refer to the chain shown, from its start. “Also recorded” adds a separate entry of the source. Like-named read-outs stand apart in the source and are kept apart here.

One test deals with T1, human IGF-1R-ECD (Homo sapiens, UniProt P08069).
T1 construct: containing the extracellular domain (ECD, amino acids 1-902) tagged with 10 or 12 histidine residues at the carboxyl terminus; His10 or His12 (C); made in house; host or cells: CHO cells
The experiment in a line: phage-competition ELISA (phage IC50). It counts as binding. The protocol: MAXISORP™ microtiter plates were coated with human IGF-1R-ECD at 5 μg/ml in PBS overnight and then blocked with CASEIN BLOCKER™ reagent (Pierce Biotechnology, Inc.). Phage from culture supernatants were incubated with serially diluted IGF-1R-ECD in PBS with 0.05% TWEEN 20™ surfactant (PBST) containing 1% bovine serum albumin (BSA) in a tissue-culture microtiter plate for 1 hour, after which 80 μl of the mixture was transferred to the target-coated wells for 15 minutes to capture unbound phage. The plate was washed with PBST, and HRP-conjugated anti-M13 (Amersham Pharmacia Biotech) was added (1:5000 in PBST containing 1% BSA) for 40 minutes. The plate was washed with PBST and developed by adding tetramethylbenzidine (TMB) substrate (Kirkegaard and Perry Laboratories, Gaithersburg, Md.). The absorbance at 450 nm was plotted as a function of target concentration in solution to determine an IC50. […] For the humanized hybridoma-derived clones, 2B4, 9F2, and 10H5, phage-Fab was used.
This assay was conducted as described in Section 1-II-A-(4) of this Example. For the YW95-phage-derived clones from the VH/VL phage library, phage-Fab-Zip was used.

For a further test, the target named is IGF-1R (Homo sapiens, UniProt P08069). The experiment in a line: antibody-induced IGF-1R down-regulation in MCF7 cells, Western blotting. Also on record: IGF-1R is normally localized at the plasma membrane of MCF7 cells; endogenous in cells; host or cells: MCF7. It counts as cell-based. The conditions noted are these: 10 μg/ml, 1, 4, 8 or 24 hours, 10% serum. The protocol: Further exploration of the mechanism of action of anti-IGF-1R antibodies was carried out by testing the ability of the antibodies of the invention, particularly human chimeric antibodies of 2B4, 9F2, 10H5, as well as human phage antibody YW95.6, to induce IGF-1R down-regulation. MCF7 cells were treated with various antibodies (10 μg/ml) for 1, 4, 8, or 24 hours in the presence of 10% serum-containing medium. The cell lysates were harvested, separated by SDS-PAGE, and analyzed for IGF-1R levels by Western blotting using an anti-IGF-1R beta-chain antibody (Cell Signaling Technology, Inc.; Beverly, Mass., USA) or anti-beta-actin antibody.
In a separate experiment, MCF7 cells were treated with serially diluted h10H5, and the cell lysates were analyzed for IGF-1R and IR levels using anti-IGF-1R and anti-IR β-chain antibodies at 1, 2, 4, and 8 hours post-continuous treatment.
In general terms: Immunoblotting shows a protein as a band on a membrane.

The next test relates to MCF7 cells. Put plainly: cell viability assay ([…]-GLO), MCF7. It counts as cell-based, human. Here is the method:
The different cell lines were cultured in their respective culture media at 37° C. in a humidified atmosphere of 5% CO2. Subsequently, cells were detached from tissue-culture flasks using the cell-dissociation solution, TRIPLE SELECT™ solution (InVitrogen, Carlsbad, Calif., USA), and centrifuged at 1000 rpm for five minutes. Detached cells were washed once with PBS, counted, and seeded in 96-well plates (Corning, N.Y., USA) at 2000 cells per well in 100 μL of culture media. After an overnight incubation at 37° C. in a humidified atmosphere of 5% CO2, the cell-culture medium was replaced with 50 μL of starvation medium consisting of serum-free RPMI 1640™ medium without phenol red. The cells were then starved for five hours in the incubator before addition of 25 μL of each anti-IGF-1R monoclonal antibody at various dilutions in serum-free RPMI 1640™ phenol red-free media. Later, 25 μL of phenol red-free RPMI 1640™ media supplemented with 4% of fetal bovine serum (FBS) (Sigma) with or without 4 ng/ml of human recombinant IGF-I were added on top of the 50 μL of antibody. The cells were then placed at 37° C. with 5% CO2 for 5 to 6 days. At the end of the assay, cell viability was measured using the […]-GLO® kit according to the manufacturer's instructions (Promega, Madison, Wis., USA).
For the cell viability assay, MCF7 cells were seeded onto 96-well plates at 2000 cells/well and incubated overnight at 37° C. in a humidified atmosphere of 5% CO2/95% air in RPMI 1640™ medium supplemented with 10% FBS (Sigma, St. Louis, Mo.) and 1% GLUTAMAX™ reagent (Promega, Madison, Wis.). The next day cells were starved in serum-free RPMI 1640™ medium (phenol red-free) for five hours followed by addition of serially diluted human chimeric versions of 9F2, 2B4, and 10H5, as well as h10H5.vX, for one hour. Subsequently, phenol red-free PRMI 1640™ medium supplemented with FBS or IGF-I was added to reach a final concentration of 1% FBS and 1 ng/mL IGF-I. Cells were then incubated with continuous IGF-1R antibody exposure. After five days, the cell viability was then determined using a […]-GLO™ kit (Promega, Madison, Wis.) according to the manufacturer's instructions.

Test [1] has as its target human IGF-1R-ECD (secreted recombinant extracellular domain, amino acids 1-902, tagged with 10 or 12 histidine residues at the carboxyl terminus) (human) (UniProt P08069). The experiment in a line: BIACORE surface plasmon resonance: IGF-1R immobilized on CM5 chip (about 500 RU), Fab injected 500-3.1 nM, 25 C, 1:1 Langmuir model. (Surface plasmon resonance follows binding to a sensor surface in real time, without labels.)

Another test has as its system cynomolgus-monkey IGF-1R. The experiment in a line: BIACORE surface-plasmon resonance, cynomolgus-monkey IGF-1R. It counts as binding. As to conditions: IgG, FIG. 15. Here is the method:
Binding affinities of selected antibodies to IGF-1R were determined by surface plasmon resonance measurements on a BIACORE™ 3000 instrument (BIAcore, Inc.). Human, murine, or cynomolgus-monkey IGF-1R was immobilized at a density of about 500 RU on the flow cells of a PIONEER™ CM5 sensor chip. Immobilization was achieved by random coupling through amino groups using a protocol provided by the manufacturer. Sensorgrams were recorded for binding of anti-IGF-1R Fab or IgG to these surfaces by injection of a series of solutions ranging from 500 nM to 3.1 nM and 250 nM to 0.78 nM in two-fold increments, respectively. The signal from the reference cell was subtracted from the observed sensorgram. Kinetic constants were calculated by non-linear regression analysis of the data according to a 1:1 Languir binding model using software supplied by the manufacturer.

Setting [2] is: YW95 phage-derived clones displayed as bivalent Fab-Zip on phage, read-out: phage IC50.

B1: YW95.3: anti-IGF-1R phage-display clone from VH/VL library; VL SEQ ID NO:66, VH SEQ ID NO:70 (antibody, V domains shown)
VH: EVQLVESGGGLVQPGGSLRLSCAASGFTFSSYAMSWVRQAPGKGLEWVSRISPSGGSTYYADSVKGRFTISADTSKNTAYLQMNSLRAEDTAVYYCAREHYFHWGGMDVWGQGTL
VL: DIQMTQSPSSLSASVGDRVTITCRASQSISSYLAWYQQKPGKAPKLLIYGASSRASGVPSRFSGSGSGTDFTLTISSLQPEDFATYYCQQYYSSPLTFGQGTKVEIKR
modifications: sequence is synthesized
Broadly, the IC50 is the concentration at which inhibition is half-maximal. Take B1: the IC50 in the test with human IGF-1R-ECD (setting [2]) turned out to be 20 nM.

B2: YW95.87: anti-IGF-1R phage-display clone from VH/VL library; VL SEQ ID NO:69, VH SEQ ID NO:73 (antibody, V domains shown)
VH: B1 VH with H100S, F102Y, H103E, G106A
VL: B1 VL
modifications: sequence is synthesized
For the molecule B2, the IC50 with human IGF-1R-ECD (setting [2]) came to 20 nM.

B3: YW95.6: human phage antibody clone against IGF-1R; VL SEQ ID NO:67, VH SEQ ID NO:71 (antibody, V domains shown)
VH: B1 VH with H100E, F102Y, H103Y, G106A
VL: B1 VL
modifications: sequence is synthesized
B3: in the test with human IGF-1R-ECD (setting [2]), the IC50 was determined as 20 nM. Besides, the IGF-1R down-regulation result with IGF-1R was “rapidly down-regulated and reached maximal reduction by eight hours”. In addition, the “effect on the MCF7 cell viability compared to the media control” value in the test on MCF7 cells (initial screen, 0.12 to 10 μg/ml) was “no effect”.

B4: YW95.81: anti-IGF-1R phage-display clone from VH/VL library; VL SEQ ID NO:68, VH SEQ ID NO:72 (antibody, V domains shown)
VH: EVQLVESGGGLVQPGGSLRLSCAASGFSFSSQGISWVRQAPGKGLEWVSTISYDGSTYYADSVKGRFTISADTSKNTAYLQMNSLRAEDTAVYYCARQFMLWGKQFGMDVWGQGTL
VL: B1 VL with Y91R, Y92F, S94V, L96F
modifications: sequence is synthesized
As to B4, the IC50 with human IGF-1R-ECD (setting [2]) came to 20 nM.

B5: murine 10H5 Fab (Fab, V domains shown)
VH: QVQLQQPGAELVKPGASVTLSCKASGYTFTRFWIHWVKQRPGQGLEWIGEINPSNGRTNYNENFKNKATLTVDTSSSTAYMQLSSLTSEVSVVYYCARGGRLDQWGQGTT
VL: DIVMTQSQKFMSTSLGDRVSVTCKASQNVGSNVAWYQQKPGQSPEALIYSASYRYSGVPDRFTGSGSGTDFTLTISNVQSEDLAEYFCHQYNNYPYTFGGGTKVEIKR
A word on the Kd: it is the constant that tells how readily two partners part at equilibrium. With B5, in test [1], the Kd was determined as 22 nM.

B6: h2B4.vX: humanized anti-IGF-1R antibody, direct HVR graft of murine 2B4; VL SEQ ID NO:44, VH SEQ ID NO:47 (antibody, V domains shown)
VH: EVQLVESGGGLVQPGGSLRLSCAASGYNLANYGLNWVRQAPGKGLEWVGWINTNTGAPTYAEEFKGRFTISADTSKNTAYLQMNSLRAEDTAVYYCARSIYYYASRYFNVWGQGTL
VL: DIQMTQSPSSLSASVGDRVTITCRASQDISNYLNWYQQKPGKAPKLLIYYTSRLHSGVPSRFSGSGSGTDFTLTISSLQPEDFATYYCQQGNTLPWTFGQGTKVEIKR
modifications: sequence is synthesized
As to B6, the “binding affinity (phage IC50) against IGF-1R-ECD, in words” value in the test with human IGF-1R-ECD (monovalent phage-Fab, after HVR grafting) is “micromolar binding affinity; also recorded: decreased into the micromolar range”.

B7: h9F2.vX: humanized anti-IGF-1R antibody, direct HVR graft of murine 9F2; VL SEQ ID NO:49, VH SEQ ID NO:51 (antibody, V domains shown)
VH: B6 VH with N28T, L34M, A57K, A61S, E62D, A104G
VL: B6 VL with S30N, N34T
modifications: sequence is synthesized
For B7, the concentration for half-maximal inhibition (IC50) in the test with human IGF-1R-ECD (humanized hybridoma-derived clones displayed on phage as monovalent Fab, read-out: binding affinity (phage IC50) against IGF-1R-ECD) is 60 nM. Besides, the “binding to human versus cyno IGF-1R” value with cynomolgus-monkey IGF-1R was “comparable for human and cyno IGF-1R”.

B8: murine 2B4 Fab (Fab, V domains shown)
VH: QIQLVQSGPELKKPGETVKISCKASGYNLANYGLNWVKQAPGEGLKWMGWINTNTGAPTYAEEFKGRFVFFLETSASTAYLQINNLSDEDTATYFCARSIYYYASRYFNVWGAGTS
VL: DIQMTQTTSSLSASLGDKVTISCRASQDISNYLNWYQQKPDGTIKLLIYYTSRLHSGIPSRFSGSGSGTDYSLTISNLEQEDIATYFCQQGNTLPWTFGGGTKVEIKR
Turning to B8, the Kd in test [1] came to 24 nM.

B9: chimeric 2B4: human chimeric version of murine 2B4 (antibody, V domains shown)
VH: B8 VH
VL: B8 VL
For the molecule B9, the IGF-1R down-regulation entry with IGF-1R is “rapidly down-regulated and reached maximal reduction by eight hours”. The “comparison of inhibitory effect on MCF7 proliferation / viability” value in the test on MCF7 cells (in the presence of IGF-I) is on record as “equivalent at decreasing the MCF7 cell viability”.
